One may read the Km as the concentration of substrate that gives half-maximal velocity.

Assay in all cases: purified protein, by the assay type
Common to all, as to conditions: pH 8.0; 25.0 °C

Substrate in data set [1]: Nc1ccc(C(=O)O)c(O)c1
Substrate in data set [2]: Nc1ccc(C(=O)O)cc1
Substrate in data set [3]: Nc1ccc(C(=O)O)c(F)c1

B1: S. aureus DHPS (Staphylococcus aureus) (protein)
chain: MTKTKIMGILNVTPDSFSDGGKFNNVESAVTRVKAMMDEGADIIDVGGVSTRPGHEMITVEEELNRVLPVVEAIVGFDVKISVDTFRSEVAEACLKLGVDIINDQWAGLYDHRMFQVVAKYDAEIVLMHNGNGNRDEPVVEEMLTSLLAQAHQAKIAGIPSNKIWLDPGIGFAKTRNEEAEVMARLDELVATEYPVLLATSRKRFTKEMMGYDTTPVERDEVTAATTAYGIMKGVRAVRVHNVELNAKLAKGIDFLKENENARHNFS
Consider B1, for which the Km in data set [1] is 8 ± 1 µM; in data set [2], 2 ± 1 µM; in data set [3] it was 5 ± 2 µM. Besides, the kcat in data set [1] amounted to 220 ± 10 min^–1; in data set [2], 170 ± 15 min^–1; in data set [3] it was 200 ± 20 min^–1.

Source of the values: paper PMC6226330.
